Series [1] has as its target T1, annexin 2 (Homo sapiens, UniProt P07355 SEQ:2-339). Description: MDA-MB-231 cells, Scatchard; Cmax 167 pM. Conditions: label: 32P, phycoerythrin, Alexa Fluor 546, biotin or Quantum Dot depending on assay; predicted secondary structure with potential pseudoknots. As to the method:
(§1) The binding curves were obtained for each cell type. On the basis of the specific binding, and using the Scatchard representation, the Kd and the number of targets per cell were determined for each of the cell types. The target of the ACE8 aptamer appears to be highly abundant at the surface of two human cancer lines (MCF-7 and A-431).

Series [2] has as its target T1, annexin 2. The series can be described thus: A-431 cells, Scatchard; Cmax 450 pM. Conditions: label: 32P, phycoerythrin, Alexa Fluor 546, biotin or Quantum Dot depending on assay; predicted secondary structure with potential pseudoknots. As to the method: as §1
Series [3] has as its target annexin 2/S100A10 heterotetrameric complex (Bos taurus, UniProt P04272;P60902 P04272:2-339,P60902:2-97). Description: filter; 0-12.5 nM protein, 1 pmol RNA in 200 ul RPMI 1640, 3 ug yeast tRNA, ambient temperature; very strong affinity compared with control. Conditions: tags: purified from bovine lung, Interchim A80109B; chain copies: 2 annexin 2 + 2 S100A10 (stated); label: 32P, phycoerythrin, Alexa Fluor 546, biotin or Quantum Dot depending on assay; predicted secondary structure with potential pseudoknots. As to the method:
1 pmol of ACE8 aptamer or of the control sequence was then preincubated with various concentrations of an annexin 2/S100A10 heterotetrameric complex. The fraction of ACE8 aptamer or of control sequence bound to the annexin 2/S100A10 heterotetramer was retained on a nitrocellulose filter and analyzed and quantified using a Storm Phosphorimager. […] FIG. 23 represents the quantification of the amount of oligonucleotides retained on the filter as a function of the concentration of annexin 2/S100A10 heterotetramer.
For this, the oligonucleotides (ACE8 aptamer or control sequence (SEQ ID NO: 11)) were dephosphorylated at their 5′ end for 30 min at 37° C. with 2.5 U of Antarctic Phosphatase (New-England Biolabs) per nmol of 2′F-Py RNA. After inactivation of the enzyme at 88° C. for 15 min, the 2′F-Py RNA was precipitated with ethanol in the presence of 5 μl/ml of a neutral coprecipitant (Linear Polyacrylamide or LPA) (Ambion). The oligonucleotides were then labeled with ATP [gamma-³²P] using T4 kinase (invitrogen) according to the supplier's instructions. The 2′F-Py RNAs (2.3 MBq, i.e. 63nCi/pmol or 63nCi/pmol⁻¹) were subsequently purified by exclusion chromatography (Bio-Spin Sp30 Chromatography Columns (Biorad)). […]

For series [4], the target named is T1, annexin 2. Description: U87-MG cells, Scatchard; Cmax 245 pM. Conditions: label: 32P, phycoerythrin, Alexa Fluor 546, biotin or Quantum Dot depending on assay; predicted secondary structure with potential pseudoknots.
The target in series [5] is T1, annexin 2. Description: HEK-293 cells, Scatchard; Cmax 269 pM. Conditions: label: 32P, phycoerythrin, Alexa Fluor 546, biotin or Quantum Dot depending on assay; predicted secondary structure with potential pseudoknots.

Usually Kd stands for a measure of binding affinity in units of concentration.

T1 sequence (P07355 2-339): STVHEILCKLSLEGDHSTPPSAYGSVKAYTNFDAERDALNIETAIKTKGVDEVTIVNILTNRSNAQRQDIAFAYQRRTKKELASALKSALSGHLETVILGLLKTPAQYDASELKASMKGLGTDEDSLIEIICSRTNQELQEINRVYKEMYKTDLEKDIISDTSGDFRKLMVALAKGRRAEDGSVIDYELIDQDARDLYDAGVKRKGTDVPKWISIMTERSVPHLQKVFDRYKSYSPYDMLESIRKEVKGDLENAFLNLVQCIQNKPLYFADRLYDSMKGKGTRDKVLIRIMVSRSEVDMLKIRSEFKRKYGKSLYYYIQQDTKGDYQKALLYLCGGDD
Chain of annexin 2/S100A10 heterotetrameric complex (P04272 2-339, chain 1 of 2): as the sequence (P07355 2-339) above, with A65E, I159V, P222C, D229E, R244K, R308K counted along it
Chain of annexin 2/S100A10 heterotetrameric complex (P60902 2-97, chain 2 of 2): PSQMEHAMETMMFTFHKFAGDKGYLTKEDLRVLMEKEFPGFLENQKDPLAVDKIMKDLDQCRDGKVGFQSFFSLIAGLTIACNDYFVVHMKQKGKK

B1: ACE8 (ssRNA)
RNA: GGGAGAUGAUCCGUUGAUGCGAGGGAACGCAAGAACUGAGGCCAUGAGGCGCCUUCCCUUGCUCAGGACGCAAGUCGUCGUUCGUAGGCAGAAUC
modifications: 2'-F pyrimidines, 2'-OH purines
Take B1: the Kd in series [1] is 4.4 nM; in series [2], 5.3 nM; in series [4] it was 12.7 nM; in series [5], 4.4 nM. Moreover, the binding result in series [3] is “binds”.

Values taken from patent US20130266515, “Specific Ligand for Annexin 2” (Commissariat A L'Energie Atomique ET AUX Energies …, published 2013).
